We go through four molecules from patent EP4421166A1 (Max-Planck-Gesellschaft zur Förderung der Wissenschaften …, dated 2024).

In one assay the target is LKPG-cpHaloΔ2-PDYE. The assay is described as follows: cell-based or functional assay.
In the next assay the target is T1, cpHaloΔ2.
T1 construct: also called linker04/E20S/N119H/V184E/V197K; improved cpHaloΔ variant
Kind of assay: EC50 of the split-HaloTag labeling reaction (fluorescence polarization). (In general: In fluorescence polarisation assays a small probe gives low polarisation when free and higher when bound to something large.)

The target in a further assay is T2, cpHaloΔ.
T2 construct: Used as purified protein; also called original cpHaloΔ; first partial effector
Kind of assay: method not stated.

T1 sequence (chain, as listed by the source mutant): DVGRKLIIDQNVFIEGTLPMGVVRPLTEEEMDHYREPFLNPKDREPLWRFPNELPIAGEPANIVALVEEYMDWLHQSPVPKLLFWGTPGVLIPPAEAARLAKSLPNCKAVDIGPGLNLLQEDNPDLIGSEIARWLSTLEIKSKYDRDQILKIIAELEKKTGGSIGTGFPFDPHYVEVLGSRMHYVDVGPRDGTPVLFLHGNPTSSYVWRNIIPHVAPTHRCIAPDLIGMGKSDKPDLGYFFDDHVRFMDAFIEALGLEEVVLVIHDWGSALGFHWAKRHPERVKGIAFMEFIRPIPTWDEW
Chain of LKPG-cpHaloΔ2-PDYE (chain, as listed by the source mutant): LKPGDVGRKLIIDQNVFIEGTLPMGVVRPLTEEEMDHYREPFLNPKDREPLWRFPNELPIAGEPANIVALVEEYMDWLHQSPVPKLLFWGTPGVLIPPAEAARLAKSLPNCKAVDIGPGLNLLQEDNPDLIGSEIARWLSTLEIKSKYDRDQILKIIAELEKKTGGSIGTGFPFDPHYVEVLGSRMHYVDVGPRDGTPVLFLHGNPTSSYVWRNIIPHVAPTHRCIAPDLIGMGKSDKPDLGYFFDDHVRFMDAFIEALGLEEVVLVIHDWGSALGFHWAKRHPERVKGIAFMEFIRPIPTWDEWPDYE
T2 sequence (chain, as listed by the source mutant): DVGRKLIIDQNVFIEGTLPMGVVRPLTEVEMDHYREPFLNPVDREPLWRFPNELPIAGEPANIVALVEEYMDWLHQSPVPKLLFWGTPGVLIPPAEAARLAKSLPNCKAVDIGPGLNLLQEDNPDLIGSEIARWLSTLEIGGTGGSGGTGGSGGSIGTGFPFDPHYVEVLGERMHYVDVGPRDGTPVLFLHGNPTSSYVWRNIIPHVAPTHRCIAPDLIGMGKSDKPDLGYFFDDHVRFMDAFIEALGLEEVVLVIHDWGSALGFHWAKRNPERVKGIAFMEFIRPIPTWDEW

For the molecule RGWSWREMFRLFRT [Hpep RGWSWREMFRLFRT], in the assay with LKPG-cpHaloΔ2-PDYE, the “EC50 of the labeling reaction” value came out at 0.000382 µM and the “fold lower EC50 than cpHaloΔ2” value was 6.6 fold. In addition, the binding result with cpHaloΔ2 is “binds”. On to RQWSWREMFRLFRT [Hpep RQWSWREMFRLFRT], for which, in the assay with cpHaloΔ2, the binding result was “binds”. Consider RMWTWREMFRLFRT [Hpep RMWTWREMFRLFRT], for which the binding result with cpHaloΔ2 was “binds”.

B1: Hpep1 (peptide)
peptide: ARETFQAFRT
notes: Residues 145-154 of HaloTag; also called original Halo-Peptide; original Hpep (10mer)
As to B1, the equilibrium dissociation constant (Kd) (commonly the concentration at which binding is half-saturated) with cpHaloΔ came out at 4600 µM.
